Assay results reported in patent US20210206875A1, “ERBB-2 TARGETING AGENT AND A BISPECIFIC ANTIBODY WITH ANTIGEN-BINDING SITES THAT BIND AN EPITOPE ON AN EXTRACELLULAR PART OF ERB-2 AND ERBB-3, FOR TREATMENT OF AN INDIVIDUAL WITH AN ERBB-2, ERBB-2/ERBB-3 POSITIVE TUMOUR” (Merus N.V., priority 2017, published 2021).

Molecular target: Erbb-3-Fc (RND systems) (UniProt P21860)
Assay: SPR (Biacore T100), monovalent affinity; column head 'KD on Her3 (nM)'; PB4188 on CM5 chip, Her3-Fc in solution

“PB4188 (MF3958 x MF3178) (bispecific antibody)” gave a Kd of 3.9 nM.
